From patent US20010041670A1 (published 2001) come the findings set out here.

Test [1] has as its target T1, Thrombospondin-1 (TSP-1) (human, UniProt P07996 19-1170). The experiment in a line: cell-based or functional assay.
The target of test [2] is T1, Thrombospondin-1 (TSP-1). The test is described as follows: solid phase competition: 125I-TSP-1 binding to immobilized HRGP.
Experimental: Solid phase binding assays were performed as described (18). […] Non-specific binding was determined by carrying out binding in the presence of excess unlabeled ligand.

T1 sequence (P07996 19-1170): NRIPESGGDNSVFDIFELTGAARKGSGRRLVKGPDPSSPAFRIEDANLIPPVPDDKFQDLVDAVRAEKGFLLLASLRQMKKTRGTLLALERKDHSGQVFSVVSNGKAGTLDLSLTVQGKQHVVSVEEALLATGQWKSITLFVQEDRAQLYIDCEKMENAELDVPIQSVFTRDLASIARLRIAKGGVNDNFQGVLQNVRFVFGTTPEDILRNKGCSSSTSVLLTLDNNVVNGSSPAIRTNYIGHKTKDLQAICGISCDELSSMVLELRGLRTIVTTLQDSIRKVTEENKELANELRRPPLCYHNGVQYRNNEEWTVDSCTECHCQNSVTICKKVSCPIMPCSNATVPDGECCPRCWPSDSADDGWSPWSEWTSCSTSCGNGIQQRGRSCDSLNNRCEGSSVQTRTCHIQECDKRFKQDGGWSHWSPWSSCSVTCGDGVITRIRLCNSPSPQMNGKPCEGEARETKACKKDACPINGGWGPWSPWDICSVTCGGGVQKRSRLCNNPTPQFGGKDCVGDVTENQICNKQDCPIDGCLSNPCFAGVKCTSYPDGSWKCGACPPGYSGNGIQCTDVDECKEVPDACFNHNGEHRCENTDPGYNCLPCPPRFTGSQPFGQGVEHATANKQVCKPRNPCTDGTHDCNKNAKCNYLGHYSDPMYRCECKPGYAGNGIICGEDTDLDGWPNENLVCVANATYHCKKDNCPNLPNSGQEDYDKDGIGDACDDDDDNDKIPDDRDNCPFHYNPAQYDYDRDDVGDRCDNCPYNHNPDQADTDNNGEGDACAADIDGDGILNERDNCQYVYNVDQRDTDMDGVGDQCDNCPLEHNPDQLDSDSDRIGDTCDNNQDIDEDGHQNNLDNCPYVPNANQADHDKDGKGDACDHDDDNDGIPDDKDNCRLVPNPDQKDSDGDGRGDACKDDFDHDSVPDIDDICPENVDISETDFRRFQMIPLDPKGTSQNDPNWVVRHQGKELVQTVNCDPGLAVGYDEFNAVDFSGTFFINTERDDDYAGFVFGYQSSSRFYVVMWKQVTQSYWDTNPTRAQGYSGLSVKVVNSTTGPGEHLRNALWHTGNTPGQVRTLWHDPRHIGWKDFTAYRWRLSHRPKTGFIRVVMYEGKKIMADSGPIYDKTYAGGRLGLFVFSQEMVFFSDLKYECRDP

B1: Histidine-rich glycoprotein (HRGP) (other, human, UniProt P04196 19-525, looked up)
chain: VSPTDCSAVEPEAEKALDLINKRRRDGYLFQLLRIADAHLDRVENTTVYYLVLDVQESDCSVLSRKYWNDCEPPDSRRPSEIVIGQCKVIATRHSHESQDLRVIDFNCTTSSVSSALANTKDSPVLIDFFEDTERYRKQANKALEKYKEENDDFASFRVDRIERVARVRGGEGTGYFVDFSVRNCPRHHFPRHPNVFGFCRADLFYDVEALDLESPKNLVINCEVFDPQEHENINGVPPHLGHPFHWGGHERSSTTKPPFKPHGSRDHHHPHKPHEHGPPPPPDERDHSHGPPLPQGPPPLLPMSCSSCQHATFGTNGAQRHSHNNNSSDLHPHKHHSHEQHPHGHHPHAHHPHEHDTHRQHPHGHHPHGHHPHGHHPHGHHPHGHHPHCHDFQDYGPCDPPPHNQGHCCHGHGPPPGHLRRRGPGKGPRPFHCRQIGSVYRLPPLRKGEVLPLPEANFPSFPLPHHKHPLKPDNQPFPQSVSESCPGKFKSGFPQVSMFFTHTFPK
On to B1, for which the “area of neovascularization relative to bFGF alone, corneal assay, pellets with bFGF, TSP-1 and HRGP (100 ng, HRGP:TSP-1 molar ratio 3:1)” value in test [1] is 82.5%.

B2: CD36 FP298-439 (other, UniProt P16671 298-439, looked up)
chain: KAFASPVENPDNYCFCTEKIISKNCTSYGVLDISKCKEGRPVYISLPHFLYASPDVSEPIDGLNPNEEEHRTYLDIEPITGFTLQFAKRLQVNLLVKPSEKIQVLKNLKRNYIVPILWLNETGTIGDEKANMFRSQVTGKIN
notes: also called GST-CD36 fusion protein; not shown: Glutathione-S-transferase fusion partner
As to B2, the binding result in test [2] is listed as “no binding”.
